Measured values published in patent publication US20240209076A1 (KODIAK SCIENCES, published 2024).

Biological target: recombinant human IL-6 (human, UniProt P05231 30-212)
Assay: SPR, antibody captured on Protein A, IL-6 as analyte
Procedure: Antibodies were captured on a Protein A chip (GE) by injecting 1:20 dilution of cell supernatant at 10 μL/min for 60 seconds. […] The sensor chip was regenerated by a 60 seconds injection of 10 mM Glycine pH 1.7 at flow rate of 50 μL/min. […] For this setup, 1 μg/mL of purified antibody was injected over a Protein A chip at 10 μL/min for 25-28 seconds. Data analysis for supernatant and purified samples were performed using BIAevaluation software (GE). All sensorgrams were double reference subtracted and fit using a 1:1 Langmuir binding model.

Chain of recombinant human IL-6 (P05231 30-212 limits assumed): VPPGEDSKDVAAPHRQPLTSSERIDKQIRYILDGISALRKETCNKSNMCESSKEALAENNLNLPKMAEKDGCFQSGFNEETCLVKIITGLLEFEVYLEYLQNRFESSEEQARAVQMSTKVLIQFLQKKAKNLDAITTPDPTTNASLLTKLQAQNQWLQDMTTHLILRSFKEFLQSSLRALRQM

B1: anti-IL-6 antibody, heavy chain G66D, light chain wild-type (antibody, human IgG1, V domains shown)
VH: EVQLVESGGGLVQPGGSLRLSCAASGFTFSPFAMSWVRQAPGKGLEWVAKISPGGSWTYYSDTVTDRFTFSLDTSKSTAYLQMNSLRAEDTAVYYCARQLWGYYALDIWGQGTLVTVSS
VL: DIQLTQSPSSLSASVGDRVTITCSASISVSYMYWYQQKPGKAPKLLIYDMSNLASGVPSRFSGSGSGTDFTLTISSLQPEDFATYYCMQWSGYPYTFGQGTKVEIK
notes: see m23; engineered human IgG1
  fold decrease in KD relative to wild-type: ~2 fold
